Laboratory results as given in publication PMC2889927.

Target: lactosylceramide-loaded recombinant human CD1d complex (human) (UniProt P15813)
Test: SPR

lactosylceramide-loaded recombinant human CD1d complex (human), sequence (P15813 20-335, one chain of several): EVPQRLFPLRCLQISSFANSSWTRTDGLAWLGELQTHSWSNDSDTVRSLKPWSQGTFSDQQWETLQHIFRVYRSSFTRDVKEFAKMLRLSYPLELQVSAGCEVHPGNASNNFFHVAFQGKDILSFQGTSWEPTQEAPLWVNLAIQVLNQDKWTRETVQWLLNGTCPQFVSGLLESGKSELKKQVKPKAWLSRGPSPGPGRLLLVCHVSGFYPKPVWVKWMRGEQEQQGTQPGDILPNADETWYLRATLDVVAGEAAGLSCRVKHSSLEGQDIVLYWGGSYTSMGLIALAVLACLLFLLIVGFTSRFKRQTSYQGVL
recombinant soluble iNKT TCR 4C1369 (Vα24/Vβ11 heterodimer), sequence (A0A0B4J240 whole entry, looked up, tested part not stated, one chain of several): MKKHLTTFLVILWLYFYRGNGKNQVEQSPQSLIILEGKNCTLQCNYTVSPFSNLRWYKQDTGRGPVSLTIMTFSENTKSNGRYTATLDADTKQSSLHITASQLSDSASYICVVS

Substance: recombinant soluble iNKT TCR 4C1369 (Vα24/Vβ11 heterodimer) (from UniProt A0A0B4J240)
- Kd: 2.03 µM
